Consider one protein from PMC3199332.

Substrate in the series: CC(C)=CCNc1ncnc2nc[nH]c12
As to the kind of experiment: UV absorbance steady-state kinetics. Format: biochemical, Paraglaciecola sp. T6c. The note with it: hydrolytic deamination; compound 1 identified by kcat/Km 1.2 × 10^7.

B1: Patl2390 (Paraglaciecola sp. T6c) (protein)
chain: MQTQPLDIQQFISDMPKAELHVHLEGTLEPELSFALAVKNRIPLEFDTPEQLIAAYDFHDLPSFLKIYYAGMNVLIKEEDFYQLTWDYLTKAASENIVYAELFFDPQAHTSRGVSFETIITGIHKAQLDAEQKLGIRSQLIMCFLRELSAESAMEHLKLAMPYLPWLVGVGLDSNERDNPPAKFAEVFEYAKALDLKLTMHCDVNQHNTLVHIKQCLDDIQVDRIDHGVNALQDPALLEKIKHKQLGLTVCPISNRFVVQSLTSNEVRQMLEHELLVTINSDDPAYFRAYLNENFIELQKEGQFSAQEMITLVENAFKVSWLKDTEISQYLYQVSQYVKQAEYQAA
As for B1, the kcat was determined as 7.3 ± 0.1 s⁻¹ and the kcat/Km is 1.2e+07 M⁻¹ s⁻¹.
